In patent US20090054250:
Where two headings read alike, the source gives them in different places.

How the values were obtained:
[1] = test system: IgE immunoglobulin, P01854-1; conditions: n at position 18 is 2-aminopurine replacing C [18 (2-aminopurine replacing C)]; PAGE purified, saturating IgE; affinity stated comparable to unmodified aptamer; screening buffer 20 mM Tris pH 7.1, 140 mM NaCl, 5 mM KCl, 10 mM CaCl2, 10 mM …
[2] = test system: IgE immunoglobulin, P01854-1; conditions: saturating IgE

IgE immunoglobulin, P01854-1, sequence (P01854 other isoform, or with tags, fused parts or gaps): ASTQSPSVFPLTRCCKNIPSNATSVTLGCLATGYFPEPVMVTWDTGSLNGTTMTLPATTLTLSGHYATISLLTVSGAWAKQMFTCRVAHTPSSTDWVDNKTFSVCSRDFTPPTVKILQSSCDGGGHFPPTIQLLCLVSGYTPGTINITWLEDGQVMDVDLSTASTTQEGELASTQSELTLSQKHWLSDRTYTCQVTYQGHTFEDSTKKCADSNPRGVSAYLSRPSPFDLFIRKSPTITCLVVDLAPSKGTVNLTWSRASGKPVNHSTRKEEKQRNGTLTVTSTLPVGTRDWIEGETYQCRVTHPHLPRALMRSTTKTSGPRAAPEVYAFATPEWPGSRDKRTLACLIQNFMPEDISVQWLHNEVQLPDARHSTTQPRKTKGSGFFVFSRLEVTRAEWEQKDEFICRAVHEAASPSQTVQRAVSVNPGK

**Q.** With “GGGGCACGTTTATCCGTCCCTCCTAGTGGCGTGCCCC [IgE aptamer 2AP-18]” as the sequence, how does the binding signal (fold fluorescence increase) [1] read?
**A.** 5.6

**Q.** For “GGGGCACGTTTATCCGTCCCTCCTAGTGGCGTGCCCC [IgE aptamer 3MI-18]”, which binding signal (fold fluorescence increase) ([2]; n at position 18 is 3-methylisoxanthopterin replacing C [18 (3-methylisoxanthopterin replacing C)]) is on record?
**A.** 1.5

**Q.** “GGGGCACGTTTATCCGTCCCTCCTAGTGGCGTGCCCC [IgE aptamer 6MAP-18]” was tested. Which binding signal (fold fluorescence increase) ([2]; n at position 18 is 6MAP replacing C [18 (6MAP replacing C)]) did it give?
**A.** 1.9
